Ends that are not written are not given here. * marks the point of attachment. Biotin = O=C1N[C@H]2[C@H](CS[C@H]2CCCCC(=O)*)N1
How the values were obtained:
Assay in all cases: A/G assays
[1] = target: T1, GST-SYN1a (alpha1-syntrophin) PDZ domain fusion protein (Homo sapiens (Human), UniProt Q13424 84-179)
T1 construct: also called SYN 1 α; not shown: glutathione S-transferase (GST) encoded by pGEX-3X
T1 sequence: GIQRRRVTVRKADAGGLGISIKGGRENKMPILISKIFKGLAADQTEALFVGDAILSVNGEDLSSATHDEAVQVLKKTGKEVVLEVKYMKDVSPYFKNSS

[2] = target: T2, GST-DVL1 PDZ domain fusion protein (human)
T2 construct: also called human dishevelled segment polarity protein homolog; not shown: glutathione S-transferase (GST) encoded by pGEX-3X
T2 chain: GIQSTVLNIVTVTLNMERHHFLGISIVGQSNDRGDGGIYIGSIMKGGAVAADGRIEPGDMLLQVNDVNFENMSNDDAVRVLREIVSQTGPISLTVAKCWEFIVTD

[3] = target: T3, GST-LIMK2 PDZ domain fusion protein (human, UniProt P53671 147-237)
T3 construct: also called human LIM domain kinase 2; not shown: glutathione S-transferase (GST) encoded by pGEX-3X
T3 sequence: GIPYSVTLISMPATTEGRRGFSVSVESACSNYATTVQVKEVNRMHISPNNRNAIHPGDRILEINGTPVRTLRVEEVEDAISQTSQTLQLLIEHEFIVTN

[4] = target: T4, GST-NeDLG PDZ domains 1-2 fusion protein (Mus musculus (Mouse), UniProt P70175 147-332)
T4 construct: also called NeDLG1; not shown: glutathione S-transferase (GST) encoded by pGEX-3X
T4 chain: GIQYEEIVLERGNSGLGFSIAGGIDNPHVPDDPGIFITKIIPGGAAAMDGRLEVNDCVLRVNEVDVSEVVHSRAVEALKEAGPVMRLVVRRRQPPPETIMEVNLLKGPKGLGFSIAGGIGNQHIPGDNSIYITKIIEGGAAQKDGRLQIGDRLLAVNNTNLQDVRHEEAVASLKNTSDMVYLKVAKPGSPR

[5] = target: T5, GST-MINT3 PDZ domain fusion protein (human)
T5 construct: also called human MINT3; not shown: glutathione S-transferase (GST) encoded by pGEX-3X
T5 chain: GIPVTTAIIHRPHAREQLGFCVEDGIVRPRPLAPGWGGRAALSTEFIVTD

[6] = target: T6, GST-MPP2 PDZ domain fusion protein
T6 construct: also called maguk p55 subfamily member 2 (DLG2); MMP2; not shown: glutathione S-transferase (GST) encoded by pGEX-3X
T6 chain: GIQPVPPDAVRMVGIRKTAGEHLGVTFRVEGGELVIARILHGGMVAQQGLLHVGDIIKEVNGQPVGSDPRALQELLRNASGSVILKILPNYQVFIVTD

[7] = target: T7, GST-TAX2 PDZ domain fusion protein (human, UniProt O14908 129-216)
T7 construct: not shown: glutathione S-transferase (GST) encoded by pGEX-3X
T7 chain: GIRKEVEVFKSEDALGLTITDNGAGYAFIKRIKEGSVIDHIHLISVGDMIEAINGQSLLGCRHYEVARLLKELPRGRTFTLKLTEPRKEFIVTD

Measured: binding result

Biotin-TSGTGHNQTRALRASESGI [CD97 (CD55L) C-terminal peptide AA14L]
no binding: all assays above

Biotin-SVFSIPTLWSPWPPSSSSQL (also called CD3-η) [CD3n C-terminal peptide AA4L]
no binding: all assays above

Biotin-LERVSSTSPSTGEHELSAGF [CC CKR-1R C-terminal peptide AA41L]
no binding: all assays above

Biotin-CAISGTSSDRGYGSPRYAEV [CLASP-4 C-terminal peptide AA3L-V]
not listed: [4]
no binding: all other assays above

Biotin-DTPSSSYTQSTMDHDLHDAL [CC CKR-4 C-terminal peptide AA44L]
no binding: all assays above

Biotin-EVICYIEKPGVETLEDSVF [CDW125 (IL5R) C-terminal peptide AA28L]
no binding: all assays above

Biotin-GKGKSIGRAPEASLQDKEGA [CC CKR-2 C-terminal peptide AA42L]
no binding: all assays above

Biotin-SSKSKSSEESQTFFGLYKL (not fully specified) [FasLigand C-terminal peptide AA23L-M]
no binding: all assays above

Biotin-PSWRRSSLSESENATSLTTF [BLR-1 C-terminal peptide AA45L]
no binding: all assays above

Biotin-SMQPDNSSDSDYDLHGAQRL [CD5 C-terminal peptide AA49L]
no binding: all assays above

Biotin-HKAEIHAQPSDKERLTSDA [CD49F (Aform, alpha6) C-terminal peptide AA12L]
no binding: all assays above

Biotin-YSATYSELEDPGEMSPPIDL (also called FceRlb; FcεRβI) [FceRIb C-terminal peptide AA25L]
no binding: all assays above

Biotin-LERTSSVSPSTAEPELSIVF [CC CKR-3 C-terminal peptide AA43L]
no binding: all assays above

Biotin-DLGNMEENKKLEENNHKTEA [CD166 (CD6L) C-terminal peptide AA20L]
no binding: all assays above

Biotin-PYGTAMEKAQLKPPATSDA [CD49E (alpha-4) C-terminal peptide AA11L]
no binding: all assays above

Biotin-SSSQSLESDGSYQKPSYIL [CD62E C-terminal peptide AA48L]
no binding: all assays above

Biotin-SPQPDSTDNDDYDDISAA [CD6 C-terminal peptide AA6L]
no binding: all assays above

From US6942981
